± gives the uncertainty stated by the source.
experiment: amyloid nucleation score (Sup35N fusion, yeast selection) (log enrichment); library NNK3; higher = more nucleation; inactive = no reads after selection
Procedure, shortened: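 Peptides of 20 random codons fused to Sup35N were expressed in psi-negative yeast, induced 24 hours with 100 μM copper sulfate, then grown 7 days at 30°C on medium lacking adenine and uracil. Input and output plasmid inserts were Illumina-sequenced. Nucleation score is the DiMSum log enrichment of output over input reads, centred on the mode score of non-aggregating sequences, excluding sequences with under 100 input reads. Random libraries had three technical output replicates.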

Row | Substance | amyloid nucleation score
1 | VSYRCSTICTNLVITVCLCD | 0.25 ± 0.34
2 | VSYTYAGYSIRYIVFSS | inactive
3 | VTELDEWSGIVVEGYNACSS | inactive
4 | VTHCSVFHLGNTWLVQLWWY | -0.513 ± 1.3
5 | VTNQSFDQPESLVEM | inactive
6 | VTSNSDRT | inactive
7 | VTVQLCSNLIMGTWRTRNVL | inactive
8 | VTVRKFMVSLWSGGPTWDGR | inactive
9 | VVATILLVHPPVKHWSCDLM | -0.859 ± 0.73
10 | VVCDNYG | 0.607 ± 0.23
11 | VVCLLALKIYDMLCRCQDVV | inactive
12 | VVFWNFTRMLCLG | inactive
13 | VVGQKTIVGTLIHFSFKVLA | 1.26 ± 0.14
14 | VVHSGWKSLDNLPHLRDVVT | inactive
15 | VVILWGR | inactive
16 | VVIVLLKFR | inactive
17 | VVLQDPGSLYEPRSHGTWFT | inactive
18 | VVLVFLRVTRYPSQKMVSAL | inactive
19 | VVMVLRVLLWWFRTSIMSRK | 0.467 ± 0.19
20 | VVMWAPLRYDFKSKDRAVES | inactive
21 | VVPIVWHTGSSRVYTEGVLM | -0.65 ± 1.3
22 | VVRYHSMYKDCYFLKRFVIL | inactive
23 | VVRYPSMKE | inactive
24 | VVVLYFVSHWTNRMSYSTRL | inactive

Row | Substance | amyloid nucleation score
25 | VWCPRDFFVSFVPCQ | inactive
26 | VWIWWEDSGITCLGYMVLDF | inactive
27 | VWLRGFQLGMDDFLWRVSGC | inactive
28 | VWNFFSMGSFSVDC | 1.28 ± 0.087
29 | VWNMSASIKLQRMSAF | inactive
30 | VWQRAKSSTIGPLIW | inactive
31 | VWSTGRLLRGKSWELISNDT | inactive
32 | VWTGWSKRGSSVA | inactive
33 | VYAKVMSCGYGQRCVMEWFE | inactive
34 | VYCLFVTCLKGINQWMHDKS | inactive
35 | VYDNNYINFRSLLYMTKVSN | inactive
36 | VYFRVFCFVSLCGVY | -0.548 ± 0.9
37 | VYFSDVV | inactive
38 | VYHLQLLVGVRGLNPRCAQE | inactive
39 | VYINVNDVALKHRFLKPV | inactive
40 | VYIVSDTRMATASFG | -0.773 ± 1.3
41 | VYKWSNVLM | inactive
42 | VYMNGIKVKDGLSTYWVPRE | -0.161 ± 0.69
43 | VYNIDTRNISFMSASNRTLS | inactive
44 | VYPCKIFCVFVVAVILFFSL | inactive
45 | VYQQSWQVLDFVRWDTERME | inactive
46 | VYRERPMSKEGRCIEWHNLA | inactive
47 | VYTGHVGLFV | inactive
48 | VYVWSG | inactive

Row | Substance | amyloid nucleation score
49 | VYWFRYRSIGTAAS | inactive
50 | VYWRTVFNLRLVLKSYGAMR | inactive
51 | VYYYKMTGKVYMSLYMGKLL | inactive
52 | WACCGICSCL | 2.02 ± 0.094
53 | WACIQK | inactive
54 | WALWICC | 0.83 ± 0.13
55 | WANNSCAIRGNNSPMGGSVA | inactive
56 | WARIYKMLIF | inactive
57 | WCAVMPFRSVTSNVIFDLSV | inactive
58 | WCFHVKTSSLVLSRQWEPLS | inactive
59 | WCSGLPGLNRWSSTIPICCY | inactive
60 | WCTAAM | inactive
61 | WCYDDGQA | inactive
62 | WDFRV | inactive
63 | WDGLHVCLKSIIGGNSGLEK | inactive
64 | WDRSMMIAIDD | inactive
65 | WEELDYNSDPLLAGSVTDYM | inactive
66 | WEGMNNKIRAYAYIATLVYT | inactive
67 | WELSRYVRGLLFEFTLCLFV | inactive
68 | WETLLKPWQA | inactive
69 | WFASNPIMLPSFYLIPWKRT | inactive
70 | WFDFHA | 0.9 ± 0.25
71 | WFDNRGLSFPYVYLLREHGK | 1.13 ± 0.11
72 | WFLVVVTFGWSIGQGQVGA | -0.527 ± 1.1

Row | Substance | amyloid nucleation score
73 | WFSPRDVNYSREVFKANTLT | inactive
74 | WGEPIVLDLSSFFDLVDRHG | inactive
75 | WGFRRT | inactive
76 | WGQCNELTMFFRFFLTFYIA | inactive
77 | WGQMR | 0.456 ± 0.37
78 | WGTFIKSFQRLVKMVLLSMP | inactive
79 | WGTRLWIVVQIGQEYVLLVR | -0.234 ± 1.1
80 | WHAFRLMWDSNMLLLRGSVV | inactive
81 | WHTSSQVSEGLEHAYVCKFE | inactive
82 | WILLCIRRRMFCRGMCTINN | inactive
83 | WINNIAPPYGQ | inactive
84 | WIRSNATFNATGVKFSSTCH | inactive
85 | WIWLGCPSVMSEEYMSDFHI | inactive
86 | WKFWVAC | inactive
87 | WKYDKGNFRALVW | inactive
88 | WLEDTSSTDF | 0.348 ± 0.22
89 | WLGMCPLLTVVLTGIFLTPF | 0.487 ± 0.2
90 | WLHTCRGSMDW | inactive
91 | WLKAEGWIIILSSATRPG | inactive
92 | WLLHLIYD | inactive
93 | WLMRARGYGNVRSPVVFGKL | inactive
94 | WLSDNSSNDLQYHYSSSKIM | inactive
95 | WLSYIDGSKVELIVQAW | inactive
96 | WLWISMVYCHLKDIRIIVGN | inactive

Row | Substance | amyloid nucleation score
97 | WMFGQSIAALFSWGTVCGLV | inactive
98 | WMMDEMLVFLTH | inactive
99 | WMRVPRMWEGKANFISG | inactive
100 | WNFGFGVWRFTAGG | 1.33 ± 0.067
101 | WNLYCAFSPDYRLNIWTLQI | inactive
102 | WNNYI | inactive
103 | WNSHQREEYTVDCYVVSVKL | -0.023 ± 0.6
104 | WNTGETISRRLVVYNFIEMN | 2.22 ± 0.056
105 | WNVELSNLVEIMGRCACYSS | 0.406 ± 0.35
106 | WPAAQVNQIHYCVGLNNYTW | inactive
107 | WPFRKKYGIVEIRDEMYAG | inactive
108 | WPSYSRLQTDFRGTGFFFRG | inactive
109 | WPYGIVTLRTWANYLGLFTL | -0.796 ± 1.1
110 | WQCGNVLLSYAQYNAVLVAW | inactive
111 | WRGKKSWAWPDQCLI | inactive
112 | WRMDSRYYCYYQFLSLSYQW | inactive
113 | WRPFWYIGFHVNVTRG | inactive
114 | WRSKLLM | inactive
115 | WRVPCLIVKYDV | inactive
116 | WRVSNKIIPIIRWQWMDPCL | inactive
117 | WSDWRLIKFNFRRSYLCLLW | inactive
118 | WSFRNVVSVGMWYLCSDRIG | inactive

— the supplement of paper PMC12042874
